The record followed here is patent publication US20040005691.

Where a chain is given by its changes, count along the chain named. In names and notes the source's numbering stands. Several values for one entry are separate records, joined by “and”; a condition that tells them apart may be missing. Identical values can stand only once.

For this data set, the target named is T1, substrate S-1 (SEISY-EVEFRWKK).
T1 chain: SEISYEVEFRWKK

B1: P33K-BACE expressed in E. coli from the pET11a-P33K-BACE construct (protein)
chain: MASMTGGQQMGRGSMAGVLPAHGTQHGIRLPLRSGLGGAPLGLRLPRETDEEPEEKGRRGSFVEMVDNLRGKSGQGYYVEMTVGSPPQTLNILVDTGSSNFAVGAAPHPFLHRYYQRQLSSTYRDLRKGVYVPYTQGKWEGELGTDLVSIPHGPNVTVRANIAAITESDKFFINGSNWEGILGLAYAEIARPDDSLEPFFDSLVKQTHVPNLFSLQLCGAGFPLNQSEVLASVGGSMIIGGIDHSLYTGSLWYTPIRREWYYEVIIVRVEINGQDLKMDCKEYNYDKSIVDSGTTNLRLPKKVFEAAVKSIKAASSTEKFPDGFWLGEQLVCWQAGTTPWNIFPVISLYLMGEVTNQSFRITILPQQYLRPVEDVATSQDDCYKFAISQSSTGTVMGAVIMEGFYVVFDRARKRIGFAVSACHVHDEFRTAAVEGPFVTLDMEDCGYNIPQTDES
As to B1, the Activity Assays (Fluorescence Peak Area) (fluorescence peak area) is 38.4 and 26.5 and 32.8; the “enzyme activity compared with BACE” value was “the P33K-BACE has essentially the same activity of BACE”.

B2: human BACE expressed in E. coli from pET11a-BACE, without the P33K mutation (protein)
chain: B1 chain with K56P
Regarding B2, the Activity Assays (Fluorescence Peak Area) (fluorescence peak area) was 31 and 45.8 and 31.9.

B3: BACE construct Asp2-2L-TM-His6 expressed in CHO cells (protein)
chain: TQHGIRLPLRSGLGGAPLGLRLPRETDEEPEEPGRRGSFVEMVDNLRGKSGQGYYVEMTVGSPPQTLNILVDTGSSNFAVGAAPHPFLHRYYQRQLSSTYRDLRKGVYVPYTQGKWEGELGTDLVSIPHGPNVTVRANIAAITESDKFFINGSNWEGILGLAYAEIARPDDSLEPFFDSLVKQTHVPNLFSLQLCGAGFPLNQSEVLASVGGSMIIGGIDHSLYTGSLWYTPIRREWYYEVIIVRVEINGQDLKMDCKEYNYDKSIVDSGTTNLRLPKKVFEAAVKSIKAASSTEKFPDGFWLGEQLVCWQAGTTPWNIFPVISLYLMGEVTNQSFRITILPQQYLRPVEDVATSQDDCYKFAISQSSTGTVMGAVIMEGFYVVFDRARKRIGFAVSACHVHDEFRTAAVEGPFVTLDMEDCGYNIPQTDESHHHHHH
For the protein B3, the Activity Assays (Fluorescence Peak Area) (fluorescence peak area) was 83.3 and 85.2 and 78.1.
